For data set [1], the target named is Aβ40 high molecular weight fibrils, P05067.
The target of data set [2] is Aβ42 fibrils, P05067.
The target of data set [3] is Aβ42 oligomers, P05067.
Data set [4] deals with synthetic Aβ40 peptide, P05067.
Data set [5] concerns the target synthetic Aβ42 peptide, P05067.

synthetic Aβ40 peptide, P05067, sequence (P05067 whole entry, looked up, tested part not stated): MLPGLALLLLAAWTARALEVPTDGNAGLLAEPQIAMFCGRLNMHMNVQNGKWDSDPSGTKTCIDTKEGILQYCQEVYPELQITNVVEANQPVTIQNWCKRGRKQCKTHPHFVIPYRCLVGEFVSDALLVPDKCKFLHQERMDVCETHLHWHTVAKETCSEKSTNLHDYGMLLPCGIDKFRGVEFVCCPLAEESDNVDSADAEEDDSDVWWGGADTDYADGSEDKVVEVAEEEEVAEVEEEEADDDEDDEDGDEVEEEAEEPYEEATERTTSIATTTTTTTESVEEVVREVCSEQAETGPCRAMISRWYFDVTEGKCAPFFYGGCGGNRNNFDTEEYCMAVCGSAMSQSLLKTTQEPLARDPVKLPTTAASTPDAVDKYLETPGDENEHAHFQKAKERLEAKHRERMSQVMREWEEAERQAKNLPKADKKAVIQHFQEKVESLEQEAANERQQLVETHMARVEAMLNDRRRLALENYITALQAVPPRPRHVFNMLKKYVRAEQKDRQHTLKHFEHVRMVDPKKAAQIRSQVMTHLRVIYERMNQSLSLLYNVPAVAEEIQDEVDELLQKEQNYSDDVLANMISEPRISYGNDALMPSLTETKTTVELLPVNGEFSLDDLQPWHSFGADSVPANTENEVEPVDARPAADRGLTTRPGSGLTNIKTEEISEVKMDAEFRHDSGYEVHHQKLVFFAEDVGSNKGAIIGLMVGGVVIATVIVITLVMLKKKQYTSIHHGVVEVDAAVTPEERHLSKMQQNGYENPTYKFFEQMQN
synthetic Aβ42 peptide, P05067, sequence (P05067 whole entry, looked up, tested part not stated): as above
Aβ42 fibrils, P05067, sequence (P05067 whole entry, looked up): as the sequence (P05067 whole entry, looked up, tested part not stated) above
Aβ42 oligomers, P05067, sequence (P05067 whole entry, looked up): as the sequence (P05067 whole entry, looked up, tested part not stated) above
Aβ40 high molecular weight fibrils, P05067, sequence (P05067 whole entry, looked up): as the sequence (P05067 whole entry, looked up, tested part not stated) above

B1: protective protein/cathepsin A (PPCA) (protein)
chain: APDQDEIQRLPGLAKQPSFRQYSGYLKGSGSKHLHYWFVESQKDPENSPVVLWLNGGPGCSSLDGLLTEHGPFLVQPDGVTLEYNPYSWNLIANVLYLESPAGVGFSYSDDKFYATNDTEVAQSNFEALQDFFRLFPEYKNNKLFLTGESYAGIYIPTLAVLVMQDPSMNLQGLAVGNGLSSYEQNDNSLVYFAYYHGLLGNRLWSSLQTHCCSQNKCNFYDNKDLECVTNLQEVARIVGNSGLNIYNLYAPCAGGVPSHFRYEKDTVVVQDLGNIFTRLPLKRMWHQALLRSGDKVRMDPPCTNTTAASTYLNNPYVRKALNIPEQLPQWDMCNFLVNLQYRRLYRSMNSQYLKLLSSQKYQILLYNGDVDMACNFMGDEWFVDSLNQKMEVQRRPWLVKYGDSGEQIAGFVKEFSHIAFLTIKGAGHMVPTDKPLAAFTMFSRFLNKQPY
In the case of B1, the “western blot of Aβ40 co-incubated with Cath A for up to 9 days during fibril formation” value in data set [1] is “Cath A significantly prevents formation of high molecular weight fibrils”. For the same protein, in data set [2], the “western blot (E610) of day 9 Aβ42 fibrils after overnight treatment with 90 ng enzyme” value is recorded as “resulted in reduction/degradation of the fibril smear as well as degradation of oligomer species (line 4 compared to line 1)”. Also, the “western blot (A11) of day 9 Aβ42 oligomers after overnight treatment with 90 ng enzyme” value in data set [3] was “resulted in degradation of the lowest oligomer band (line 4)”. In data set [4], the “ELISA with C-terminal capture antibody after 2 h incubation of Aβ40 with varying Cath A concentrations” value is recorded as “progressively reduced binding of Aβ40 peptide to C-terminal capture antibody with increasing concentration of Cath A”; the “THT aggregation of Aβ40 after pre-incubation with Cath A for up to two hours” value is given as “Aβ40 peptide did not aggregate after pre-incubation with Cath A”; the “THT aggregation of Aβ40 with simultaneous incubation with Cath A” value is on record as “aggregation of Aβ40 amyloid is not affected by Cath A, in applied experimental settings, even when high concentration of enzyme is used”. Further, in data set [5], the “Aβ42 aggregation by THT assay and western blot” value is listed as “PPCA can efficiently prevent formation of Aβ42 amyloid species”; the “human Aβ42 specific ELISA signal after treatment with 90 ng cathepsin A (0-120 min, 37° C., pH 5.0)” value is reported as “a loss of fluorescent signal already within first 10 min of treatment”.

Values taken from patent US20170119861.
